Experiments:
[1] = parameters: species or system nude mice
Experimental: Studies were undertaken in nude mice to establish the extent of cAb-CEA5::β-lactamase conjugate localization in LS 174T tumor xenografts. ^125I labeled cAb-CEA5::β-lactamase (4,728,481 cpm/μg conjugate) or cAb-Lys3::β-lactamase conjugate (2,691,621 cpm/μg conjugate) were injected i.v. (1 mg/kg) into mice (3 animals/group) that had subcutaneous LS 174T carcinoma tumors of about 0.5-1 cm diameter. The amount of radioactivity in the tumors, blood, and several other tissues was determined 6 hours, 24 hours and 48 hours later (FIG. 4). […] A rather high accumulation of both cAb-CEA5::βL and cAb-Lys3::βL conjugates in the kidneys (0.41-0.53% ID/g tissue) was also noticed. In order to see whether the radioactivity measured originated from intact conjugate molecules or degraded material, the enzymatic activity of β-lactamase in targeted tumor, liver and kidney tissue using nitrocefin was assessed. […] The blood and normal tissue levels were still high at this time point and, thus, tumor/normal tissue ratios were low. After 24 hours, although the amounts of cAb-CEA::βL conjugate in the tumors had fallen to approximately 1% injected dose/g tumor, the blood and normal tissue levels had fallen more rapidly and, consequently, tumor/normal tissue ratios were in the 10-50 fold range, except for the kidneys where a high amount of radioactivity could still be measured.

[2] = tested on: LS 174T xenografts; assay: Anti-tumor effect of the prodrug therapy in nude mice with LS 174T xenografts; type: in vivo; details: conjugate 1 mg/kg i.v.
Experimental: FIG. 5: Therapeutic effect of cAb::βL/CCM combinations in nude mice with LS 174T xenografts. Conjugates (1 mg/kg) were injected i.v. on days indicated by the arrows, and CCM was administered 24 hours later. The therapeutic effects were compared to those of PDM at the MTD.
The anti-tumor effect of giving cAb-CEA::βL conjugate (1 mg/kg body weight) followed 24 hours later by escalating doses of CCM (100, 150, 200 mg/kg) are shown in FIG. 5. […] Therapeutic efficiency was dose-dependent.
Groups of five female athymic nude mice were injected subcutaneously with 2×10^6 LS 174T tumor cells. Ten days later when the tumors reached a size of about 100 mm^3, 1 mg/kg bodyweight of βL conjugates was injected i.v., followed 24 hours later by the prodrug CCM. Treatment with cAb-βL+CCM was carried out on a weekly schedule for a total of three rounds. The animals were monitored twice a week for general health, weight and tumor growth and compared to control groups receiving no treatment. Tumor volumes were calculated using the formula (longest length×perpendicular width^2)/2.

[3] = tested on: LS 174T tumor xenografts; assay: Conjugate localization (125I labeled conjugate biodistribution) in nude mice bearing LS 174T tumor xenografts; details: mouse, in vivo, iv, 1 mg/kg
Experimental: FIG. 4: Pharmacokinetics of cAb-CEA5::βL and the nonbinding control cAb-Lys3::βL in nude mice (three animals/group). βL conjugate levels in subcutaneous LS 174T colon carcinoma tumors and in normal tissues are shown at 6 hours, 24 hours and 48 hours post-administration. cAb-Lys3::βL served as nonbinding control.
Studies were undertaken in nude mice to establish the extent of cAb-CEA5::β-lactamase conjugate localization in LS 174T tumor xenografts. ^125I labeled cAb-CEA5::β-lactamase (4,728,481 cpm/μg conjugate) or cAb-Lys3::β-lactamase conjugate (2,691,621 cpm/μg conjugate) were injected i.v. (1 mg/kg) into mice (3 animals/group) that had subcutaneous LS 174T carcinoma tumors of about 0.5-1 cm diameter. The amount of radioactivity in the tumors, blood, and several other tissues was determined 6 hours, 24 hours and 48 hours later (FIG. 4). […] In order to see whether the radioactivity measured originated from intact conjugate molecules or degraded material, the enzymatic activity of β-lactamase in targeted tumor, liver and kidney tissue using nitrocefin was assessed. […]
The cAb-CEA::βL conjugate was radioiodinated with carrier-free ^125I using the IODOGEN reagent, following the manufacturer's (Pierce, Rockford, Ill., US) recommended method. […] The tumor, a sample of blood, and a range of other tissues were removed, weighed, and counted in a gamma counter.

[4] = tested on: LS 174T human adenocarcinoma cells; assay: In vitro cytotoxicity assay, [3H] thymidine incorporation, conjugate + CCM prodrug; details: cells blocked with unconjugated cAb-CEA5 0.1 mg/ml before conjugate

B1: cAb-CEA5-βL (protein)
chain: QVQLVESGGGSVQAGGSLRLSCAASGDTYGSYWMGWFRQAPGKEREGVAAINRGGGYTVYADSVKGRFTISRDTAKNTVYLQMNSLRPDDTADYYCAASGVLGGLHEDWFNYWGQGTQVTVSSAHHSEDPSSKAPKAPMGTPVSEKQLAEVVANTITPLMKAQSVPGMAVAVIYQGKPHYYTFGKADIAANKPVTPQTLFELGSISKTFTGVLGGDAIARGEISLDDAVTRYWPQLTGKQWQGIRMLDLATYTAGGLPLQVPDEVTDNASLLRFYQNWQPQWKPGTTRLYANASIGLFGALAVKPSGMPYEQAMTTRVLKPLKLDHTWINVPKAEEAHYAWGYRDGKAVRVSPGMLDAQAYGVKTNVQDMANWVMANMAPENVADASLKQGIALAQSRYWRIGSMYQGLGWEMLNWPVEANTVVEGSDSKVALAPLPVAEVNPPAPPVKASWVHKTGSTGGFGSYVAFIPEKQIGIVMLANTSYPNPARVEAAYHILEALQHHHHHH
Q: Which “β-lactamase enzymatic activity in excised tumor tissue” value [1] does the source give for B1 here?
A: enzymatic activity was intact

Q: And the “β-lactamase enzymatic activity in kidney tissue” value [1]?
A: no activity could be measured

Q: And the “β-lactamase enzymatic activity in liver tissue” value [1]?
A: no activity could be measured

Q: And the “anti-tumor activity at 200 mg CCM/kg/injection” value ([2]; 24 hours later CCM 200 mg/kg/injection)?
A: Significant anti-tumor activity including partial regression of the tumors

Q: And the “anti-tumor effect of the prodrug therapy combination” value ([2]; 24 hours later CCM 100, 150, 200 mg/kg, weekly, three rounds, vs non-treated or cAb-Lys3::βL + CCM)?
A: significant anti-tumor effect

Q: What about the “amount of conjugate in the tumors” value [3] of the same molecule?
A: approximately 1 % injected dose/g tumor

Q: And the “prodrug CCM activation on cells saturated with unconjugated cAb-CEA5” value [4]?
A: activated CCM at marginal levels

— US20050048060A1, “Immunoconjugates” (priority 2002, published 2005)
